Reference: patent US9809653B2, “Anti-LAMP1 antibodies and antibody drug conjugates, and uses thereof” (SANOFI, priority 2012, dated 2017)
Where two headings read alike, the source gives them in different places.

Legend:
Colo205 cells = experiment: Quenching of Alexa488 by anti-Alexa488 antibody, flow cytometry, internalized fraction; type: cell-based, human
Description: Quantification of internalization can also be performed by fluorescence-based quenching methods. In particular, a fluorescence-based Alexa488-quenching method has been described to analyze internalisation of targeting agents (Frejd et al. 2010, International Journal of Oncology, 36: 757-763). According to said description, internalization is calculated as the Mean fluorescence intensity (MFI) value of quenched cells (intracellular compartments only) divided by the MFI value of unquenched cells (both cell surface and intracellular compartments) at 37° C., according to the following formula: […]
The cells were washed twice in ice cold PBS in a cold centrifuge, and resuspended in 500 nM quenching anti-Alexa488 antibody diluted in ice cold PBS. All tubes were incubated for 1 h on ice. Without washing, all cells were fixed in two volumes of 2% paraformaldehyde for 10 min at room temperature. The paraformaldehyde was removed by one wash in PBS, and the cells were resuspended in PBS and analyzed in a flow cytometer (Guava® easyCyte 8HT Flow Cytometry System).
An internalization positive control experiment was done in parallel with Alexa488-labelled Transferrin (600 nM).
Mean fluorescence intensity (MFI) values obtained from the flow cytometry reading of 5×10^4 cells per tube were used for all calculations. Internalization was calculated as the MFI value of quenched cells (intracellular compartments only) divided by the MFI value of unquenched cells (both cell surface and intracellular compartments) at 37° C. as described in the formula: […]

[1] = cited from earlier work
recombinant human LAMP2 = molecular target: T1, recombinant human LAMP2 (Homo sapiens, UniProt P13473); experiment: Specificity ELISA on recombinant human LAMP2; type: binding
T1 construct: purchased R&D Systems 6228-LM
Description: LAMP2 is the closest member of the LAMP family with 35% sequence identity to LAMP1. […] Anti-LAMP1 antibodies were added to the plates and detected by using rabbit anti-mouse IgG conjugated with horseradish peroxidase (Sigma; #A9044). Antibody binding was visualized by adding TMB-H2O2 buffer and read at a wavelength of 450 nm.
LAMP2 is the closest member of the LAMP family with 35% sequence identity to LAMP1. Specificity of MAb4 was evaluated by ELISA as described in example 4.6 with either LAMP1 or LAMP2 soluble proteins, as shown in FIG. 41.

[2] = molecular target: T2, LAMP1 in FFPE colon adenocarcinoma PDX CR-LRB-010P and human breast carcinoma (Homo sapiens, UniProt P11279); experiment: IHC on FFPE tumor tissue, LAMP1 membrane reinforcement; conditions: FFPE samples
T2 construct: from tissue; host or cells: human tumoral and non-tumoral tissue sections and PDX tumour sections (frozen-OCT, AFA, FFPE)
T2 sequence (P11279 29-417): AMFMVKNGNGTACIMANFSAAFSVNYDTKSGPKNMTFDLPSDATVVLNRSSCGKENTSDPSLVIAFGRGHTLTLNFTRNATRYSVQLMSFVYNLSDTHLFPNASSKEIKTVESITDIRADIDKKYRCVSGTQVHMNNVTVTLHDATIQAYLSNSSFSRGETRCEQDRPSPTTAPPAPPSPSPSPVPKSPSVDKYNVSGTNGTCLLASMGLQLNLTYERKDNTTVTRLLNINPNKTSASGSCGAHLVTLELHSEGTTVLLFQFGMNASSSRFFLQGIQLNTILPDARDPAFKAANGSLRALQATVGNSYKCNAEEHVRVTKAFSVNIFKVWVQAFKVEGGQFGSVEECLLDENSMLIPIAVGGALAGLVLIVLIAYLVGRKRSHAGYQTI
From the text: IHC analysis of tumor tissues from biobanks or from hospitals before or during patient treatment is routinely done with formalin-fixed paraffin-embedded (FFPE) samples. […] One of the reasons is probably the effect of the formalin fixative combined to the complexity of the protein. Samples processed in frozen OCT or AFA are not routinely prepared in hospitals. Therefore, there is a need to have a mAb that would allow complete and fast coverage of the FFPE tumor biobanks and hospital samples.
Rabbit polyclonal antibodies generated with peptides described in example 17.1.1 were tested by IHC on FFPE sample of colon adenocarcinoma patient derived xenograft CR-LRB-010P and human breast carcinoma. After antigen retrieval procedure and endogen biotins blocking steps, slides were incubated with the primary anti-antibody for 1 hour at 24° C. Negative controls were performed by omission of the primary antibody. The biotin free anti-rabbit UltraMap™ horseradish peroxidase (HRP) conjugate (760-4315, Ventana Medical Systems, Inc, USA) was used as secondary antibody system according to manufacturer's recommendations. A couterstaining step was done with hematoxylin (760-2037, Ventana Medical Systems, Inc, USA) and bluing reagent was applied (760-2037, Ventana Medical Systems, Inc, USA). Stained slides were dehydrated and coverslipped with cytoseal XYL (8312-4, Richard-Allan Scientific, USA).
As the same manner as in example 17.1.2, IHC screening was performed with the hybridoma supernatant to identify mouse monoclonal antibody showing LAMP1 membrane reinforcement on FFPE sample of colon adenocarcinoma patient derived xenograft CR-LRB-010P. The biotin free anti-mouse UltraMap™ horseradish peroxidase (HRP) conjugate (760-152, Ventana Medical Systems, Inc, USA) was used as secondary antibody system according to manufacturer's recommendations.

[3] = molecular target: T3, cell surface LAMP1 on Patient-derived tumor xenografts and tumor cell lines (Homo sapiens, UniProt P11279); experiment: Antibody binding capacity (ABC) by FACS on patient-derived xenografts and tumor cell lines; conditions: FACS
T3 construct: endogenous in cells; host or cells: enzymatically dissociated patient-derived xenograft tumour cells (e.g. CR-IGR-034P, LUN-NIC-014P, BRE-IGR-0159) and tumour cell lines
T3 sequence (P11279 29-417): T2 sequence (P11279 29-417)
Description: Antibody binding capacity of antibody was determined using Mouse IgG Calibrator kit (Biocytex #7208) or Human IgG Calibrator Kit (Biocytex #CP010) according to the manufacturer's instructions.
The panel of tumor cells comprises Patient-derived tumor xenografts from different origins and tumor cell lines. FIG. 2 illustrates the expression profile and Table 4 summarizes the antibody binding capacity results.
(§1) The panel of tumor cells comprises Patient-derived tumor xenografts from different origins and tumor cell lines.

[4] = molecular target: T4, patient-derived xenografts from colon, lung and breast origin and tumor cell lines (Homo sapiens, UniProt P11279); experiment: Binding to patient-derived xenograft tumor cells by flow cytometry (mean fluorescence); conditions: for Mean Florescence Intensity (MFI): FACS
T4 construct: endogenous in cells; host or cells: enzymatically dissociated patient-derived xenograft tumour cells (e.g. CR-IGR-034P, LUN-NIC-014P, BRE-IGR-0159) and tumour cell lines
T4 sequence (P11279 29-417): T2 sequence (P11279 29-417)
Description: Advanced human primary tumors from colon (CR-IGR-034P), lung (LUN-NIC-014P and breast (BRE-IGR-0159) indications were obtained from patient-derived xenograft (PDX) in mice as described in example 1. PDXs were enzymatically dissociated using collagenase Type IV (Invitrogen; #17104-019) and deoxyribonuclease I (Invitrogen, #18047-019) for 1 h at 4° C. Cell viability was estimated by Viacount application using Guava® easyCyte™ 8HT Flow Cytometry System. Tumoral cells were coated at 40,000 cells/well on 96-well High Bind plate (MSD L15XB-3) and 100 μL of antibody was added at 20 μg/mL for 45 min at 4° C. and washed three times with PBS 1% BSA. 100 μL of goat anti-human IgG conjugated with Alexa488 (Invitrogen; #A11013) was added for 45 min at 4° C. and washed three times with PBS 1% BSA. The antibody binding was evaluated after centrifugation and resuspension of cells by adding 200 μL/well PBS 1% BSA and read using Guava® easyCyte™ 8HT Flow Cytometry System. The mean fluorescence was recorded and plotted in the graph shown in FIG. 12 to illustrate the expression profile of the three mAbs onto the three PDXs.
as §1

[5] = Colo205, 4 h, 500 nM quenching anti-Alexa488 antibody

T1 sequence (P13473 with tags, fused parts or gaps): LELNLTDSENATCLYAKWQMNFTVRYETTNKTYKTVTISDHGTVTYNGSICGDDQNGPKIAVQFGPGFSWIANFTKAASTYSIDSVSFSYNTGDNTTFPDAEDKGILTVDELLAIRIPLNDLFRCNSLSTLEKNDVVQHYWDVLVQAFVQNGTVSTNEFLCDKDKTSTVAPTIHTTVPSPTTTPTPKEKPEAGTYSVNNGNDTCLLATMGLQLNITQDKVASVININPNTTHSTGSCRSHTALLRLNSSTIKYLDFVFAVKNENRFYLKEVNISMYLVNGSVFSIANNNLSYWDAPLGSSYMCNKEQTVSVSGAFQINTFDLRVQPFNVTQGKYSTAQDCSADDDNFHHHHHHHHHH

In the case of “Alexa488-Transferrin: internalization positive control”, the “MFI 4° C. Quencher” value (Colo205 cells; [5]) is reported as 8.98, the “MFI 37° C. Quencher” value (Colo205 cells; [5]) is reported as 1210 and the “MFI 4° C.” value (Colo205 cells; Colo205, 4 h, unquenched) is reported as 35.78. The “MFI 37° C.” value (Colo205 cells; Colo205, 4 h, unquenched) was 1228 and the “total cell fluorescence that was intracellular” value (Colo205 cells; Colo205, after 4 h at 37° C.) was “about 98.5%”.

In the case of “transferrin: transferrin, literature internalization reference”, the IS ([1]; cells incubated at 37° C. for one hour) is given as 0.9 and the IS ([1]; cells left on ice) is given as 0.

B1: MAb4: mouse monoclonal anti-LAMP1 antibody from hybridoma 88LAMP1-2, VH SEQ ID NO: 88, VL SEQ ID NO: 89 (antibody, listed as Mus musculus, V domains shown)
VH: QVQLQQSGAELVRPGTSVKVSCKASGYAFTNYLIEWVKQRPGQGLEWIGVINPGSGGTNYNEKFKGKATLTADKSSSTAYMQLSSLTSDDSAVYFCARYRSYDWYFDVWGAGTTVTVSS
VL: DIQMTQSPASLSASVGETVTITCRVSGNIHNYLAWYQQKQGKSPQLLVYNAKTLADGVPSRFSGSGSGTQYSLKINSLQPEDFGSYYCQHFWSNPYTFGGGTKLEIK
With B1 the “binding to LAMP2” value (recombinant human LAMP2) was “No binding”, the “difference between the EC50 towards LAMP1 versus LAMP2” value (recombinant human LAMP2) was “more than 100 fold” and the “LAMP1 membrane reinforcement in FFPE format by IHC” value [2] was “displayed membrane reinforcement immunostaining”. For the same molecule, the “Antibody Binding Capacity (ABC)” value ([3]; CR-IGR-034P/colorectal PDX) was 260 000, the “Antibody Binding Capacity (ABC)” value ([3]; Colo205/colon cell line) was 3000 and the “Antibody Binding Capacity (ABC)” value ([3]; LUN-NIC-006/lung PDX) was 92 000. For the same molecule, the “Antibody Binding Capacity (ABC)” value ([3]; LUN-NIC-033/lung PDX) was 87 000, the “Mean Florescence Intensity (MFI)” value ([4]; BRE-IGR-0159/breast PDX) was 400 and the “Mean Florescence Intensity (MFI)” value ([4]; CR-IGR-034P/colorectal PDX) was 424. For the same molecule, the “Mean Florescence Intensity (MFI)” value ([4]; Colo205/colon cell line) was 7, the “Mean Florescence Intensity (MFI)” value ([4]; LUN-NIC-006/lung PDX) was 162 and the “Mean Florescence Intensity (MFI)” value ([4]; LUN-NIC-033/lung PDX) was 154. For the same molecule, the “binding to tumor cells by flow cytometry” value ([4]; PDX and tumor cell lines) was “able of binding to multiple tumor cells”.
